Results taken from the supplement of paper PMC10567573.

B1: ZNF263 (parent)
chain: QPKKLHLCPLCGKNFSNNSNLIRH
B2: ZNF449 (parent)
chain: HKKKSPGEKPHRCPQCGKCFARKS

Variants of: B1
Assay: protein stability index of a GFP-peptide fusion (GPS, HEK-293T) (PSI 1-6); higher = more stable
Conditions: c terminus: a fixed tail appended
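Further: lentivirally expressed fusions sorted by FACS into six bins by GFP to DsRed ratio, PSI derived from sequencing read proportions per bin multiplied by bin number.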

| Variant | protein stability index |
| --- | --- |
| EPKKLHLCPLCGKNFSNNSNLIRH | 3.16 |
| CPKKLHLCPLCGKNFSNNSNLIRH | 2.69 |
| FPKKLHLCPLCGKNFSNNSNLIRH | 2.21 |
| HPKKLHLCPLCGKNFSNNSNLIRH | 2.69 |
| GPKKLHLCPLCGKNFSNNSNLIRH | 2.33 |
| DPKKLHLCPLCGKNFSNNSNLIRH | 3.09 |
| APKKLHLCPLCGKNFSNNSNLIRH | 2.97 |

Variants of: B2
Assay: as above
Conditions: c terminus: a fixed tail appended

| Variant | protein stability index |
| --- | --- |
| HKKKSPGEKPHRCPQCGWCFARKS | 2.5 |
| HKKKSPGEKPHRCPQCGVCFARKS | 2.9 |
| HKKKSPGEKPHRCPQCGPCFARKS | 2.97 |
| HKKKSPGEKPHRCPQCGSCFARKS | 2.94 |
| HKKKSPGEKPHRCPQCGLCFARKS | 3.13 |
| HKKKSPGEKPHRCPQCGNCFARKS | 3.87 |
| HKKKSPGEKPHRCPQCGCCFARKS | 3.29 |
| HKKKSPGEKPHRCPQCGDCFARKS | 2.17 |
| HKKKSPGEKPHRCPQCGICFARKS | 2.52 |
| HKKKSPGEKPHRCPQCGHCFARKS | 4.25 |
| HKKKSPGEKPHRCPQCGFCFARKS | 5.18 |
| HKKKSPGEKPHRCTQCGKCFARKS | 3.54 |
| HKKKSPGEKPHRCIQCGKCFARKS | 3.62 |
| HKKKSPGEKPHRCEQCGKCFARKS | 3.79 |
| HKKKSPGEKPHRCFQCGKCFARKS | 2.72 |
| HKKKSPGEKPHRCAQCGKCFARKS | 3.01 |
| HKKKSPGEKPHRCNQCGKCFARKS | 3.87 |
| HKKKSPGEKPHRCSQCGKCFARKS | 3.01 |
| HKKKSPGEKPHRCVQCGKCFARKS | 3.75 |
| HKKKSPGEKPHRCYQCGKCFARKS | 3.75 |
| HKKKSPGEKPHRCWQCGKCFARKS | 2.57 |
| HKKKSPGEKPHRCRQCGKCFARKS | 3 |

| Variant | protein stability index |
| --- | --- |
| HKKKSPGEKPHRCHQCGKCFARKS | 3.26 |
| HKKKSPGEKPHRCKQCGKCFARKS | 3.78 |
| HKKKSPGEKPHRCPQTGKCFARKS | 3.71 |
| HKKKSPGEKPHRCPQHGKCFARKS | 2.71 |
| HKKKSPGEKPHRCPQPGKCFARKS | 4.48 |
| HKKKSPGEKPHRCPQIGKCFARKS | 4.24 |
| HKKKSPGEKPHRCPQRGKCFARKS | 3.42 |
| HKKKSPGEKPHRCPQQGKCFARKS | 4.18 |
| HKKKSPGEKPHRCPQYGKCFARKS | 4.59 |
| HKKKSPGEKPHRCPQGGKCFARKS | 4.53 |
| HKKKSPGEKPHRCPQNGKCFARKS | 3.64 |
| HKKKSPGEKPHRCPQAGKCFARKS | 4.73 |
| HKKKSPGEKPHRCPQEGKCFARKS | 4.71 |
| HKKKSPGEMPHRCPQCGKCFARKS | 4.23 |
| HKKKSPGEHPHRCPQCGKCFARKS | 2.57 |
| HKKKSPGERPHRCPQCGKCFARKS | 3.94 |
| HKKKSPGEYPHRCPQCGKCFARKS | 3.75 |
| HKKKSPGEFPHRCPQCGKCFARKS | 3.38 |
| HKKKSPGELPHRCPQCGKCFARKS | 2.42 |
| HKKKSPGENPHRCPQCGKCFARKS | 4.35 |
| HKKKSPGEWPHRCPQCGKCFARKS | 3.66 |
| HKKKSPGEKPHRCPQCNKCFARKS | 3.75 |

| Variant | protein stability index |
| --- | --- |
| HKKKSPGEKPHRCPQCHKCFARKS | 3.44 |
| HKKKSPGEKPHRCPQCQKCFARKS | 3.66 |
| HKKKSPGEKPHRCPQCCKCFARKS | 3.31 |
| HKKKSPGEKPHRCPQCYKCFARKS | 3.6 |
| HKKKSPGEKPHRCPQCFKCFARKS | 3.79 |
| HKKKSPGEKPHRCPQCWKCFARKS | 3.41 |
| HKKKSPGEKPHRCPQCDKCFARKS | 3.86 |
| HKKKSPGVKPHRCPQCGKCFARKS | 3.79 |
| HKKKSPGQKPHRCPQCGKCFARKS | 2.99 |
| HKKKSPGWKPHRCPQCGKCFARKS | 3.36 |
| HKKKSPGRKPHRCPQCGKCFARKS | 3.99 |
| HKKKSPGPKPHRCPQCGKCFARKS | 3.63 |
| HKKKSPGYKPHRCPQCGKCFARKS | 3.9 |
| HKKKSPGEKPHRCPQCGKCRARKS | 3.96 |
| HKKKSPGEKPHRCPQCGKCPARKS | 1.49 |
| HKKKSPGEKPHRCPQCGKCNARKS | 5.19 |
| HKKKSPGEKPHRCPQCGKCVARKS | 3.97 |
| HKKKSPGEKPHRCPQCGKCEARKS | 4.11 |
| HKKKSPGEKPHRCPQCGKCDARKS | 4.04 |
| HKKKSPGEKPHRCPQCGKCYARKS | 3.67 |
| HKKKSPGEKPHRCPQCGKCLARKS | 4.18 |
| HKKKSPGEKPHRCPQCGKCAARKS | 3.64 |

| Variant | protein stability index |
| --- | --- |
| HKKKSPGEKPHRCPQCGKCIARKS | 4.38 |
| HKKKSPGEKPHRCPQCGKCHARKS | 4.62 |
| HKKKSPGEKPHRCPQCGKCSARKS | 3.63 |
| HKKKSPGEKPHRCPQCGKMFARKS | 2.54 |
| HKKKSPGEKPHRCPQCGKVFARKS | 3.41 |
| HKKKSPGEKPHRCPQCGKYFARKS | 3.99 |
| HKKKSPGEKPHRCPQCGKDFARKS | 3.66 |
| HKKKSPGEKPHRCPQCGKIFARKS | 4.05 |
| HKKKSPGEKPHRCPQCGKNFARKS | 3.79 |
| HKKKSPGEKPHRCPQCGKFFARKS | 3.48 |
| HKKKSPGEKPHRCPQCGKHFARKS | 4.35 |
| HKKKSPGEKPHRCPQCGKTFARKS | 3.44 |
| HKKKSPGEKPHRCPQCGKAFARKS | 3.36 |
| HKKKSPGEKPHRNPQCGKCFARKS | 4.95 |
| HKKKSPGEKPHRVPQCGKCFARKS | 4.69 |
| HKKKSPGEKPHRKPQCGKCFARKS | 4.26 |
| HKKKSPGEKPHRMPQCGKCFARKS | 4.82 |
| HKKKSPGEKPHRIPQCGKCFARKS | 4.05 |
| HKKKSPGEKPHRSPQCGKCFARKS | 4.4 |
| HKKKSPGEKPHRFPQCGKCFARKS | 2.71 |
| HKKKSPGEKPHRRPQCGKCFARKS | 3.91 |
